Laboratory results from US20130230533A1 (Regeneron, published 2013).

What was measured:
[1] = molecular target: T1, Monomeric human CD48-mmH (human); assay: SPR (Biacore), antibody captured by anti-Fc, CD48 in solution, 37 C
T1 chain: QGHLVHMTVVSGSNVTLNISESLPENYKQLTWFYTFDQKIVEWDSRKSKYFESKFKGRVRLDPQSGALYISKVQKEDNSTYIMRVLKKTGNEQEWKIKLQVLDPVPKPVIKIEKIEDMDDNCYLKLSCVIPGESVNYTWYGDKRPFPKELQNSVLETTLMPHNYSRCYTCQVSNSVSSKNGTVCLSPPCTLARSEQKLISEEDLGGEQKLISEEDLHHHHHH
Protocol: (§1) Measurements were conducted on a T100-2 BIACORE™ instrument (Biacore Life Sciences division of GE Healthcare, Piscataway, N.J.). Antibodies (either with mouse Fc [designated “H2M” or “H3M”] or human IgG4 Fc [designated “H4H”]) were captured through an anti-Fc chip surface, and CD48 was flowed over the surface either in a monomeric (soluble CD48 expressed with a myc-myc-hexa-histidine C-terminal tag [mmH]) or dimeric (soluble CD48 expressed with a C-terminal Fc fusion [mFc]) format.
(§2) The soluble CD48 was applied to the flow cell in separate injections at different concentrations, and kinetic association (kₐ) and dissociation (kd) rate constants were determined by fits to the kinetic binding data using Biacore software. Binding dissociation equilibrium constants and dissociation half-times were calculated from the kinetic rate constants as: KD=kd/kₐ; t_{1/2}=(ln 2/kd) (units: ka=M⁻¹*s⁻¹; kd=s⁻¹; KD=M; T½=min) (Tables 3-6).

[2] = molecular target: T2, Dimeric human CD48-mFc (human); assay: as above
T2 construct: the whole entry is the construct; also called hCD48-mFc
T2 chain: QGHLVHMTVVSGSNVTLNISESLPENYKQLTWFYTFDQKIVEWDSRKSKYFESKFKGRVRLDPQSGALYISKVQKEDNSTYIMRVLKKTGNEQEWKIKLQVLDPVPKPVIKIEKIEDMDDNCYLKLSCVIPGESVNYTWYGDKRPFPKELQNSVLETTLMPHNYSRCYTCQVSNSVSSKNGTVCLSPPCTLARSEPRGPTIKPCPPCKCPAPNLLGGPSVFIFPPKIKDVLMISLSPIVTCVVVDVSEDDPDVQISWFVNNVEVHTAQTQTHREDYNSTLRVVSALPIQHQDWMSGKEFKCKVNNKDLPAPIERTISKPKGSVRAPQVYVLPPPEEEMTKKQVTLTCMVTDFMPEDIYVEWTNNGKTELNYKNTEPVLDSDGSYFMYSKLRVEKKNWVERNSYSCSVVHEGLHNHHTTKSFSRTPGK
Protocol: as §1, §2

[3] = molecular target: T3, Monomeric monkey CD48-mmH (monkey); assay: as above
T3 construct: Soluble monkey CD48 with a myc-myc-hexa-histidine C-terminal tag; the whole entry is the construct; also called mfCD48-mmH
T3 chain: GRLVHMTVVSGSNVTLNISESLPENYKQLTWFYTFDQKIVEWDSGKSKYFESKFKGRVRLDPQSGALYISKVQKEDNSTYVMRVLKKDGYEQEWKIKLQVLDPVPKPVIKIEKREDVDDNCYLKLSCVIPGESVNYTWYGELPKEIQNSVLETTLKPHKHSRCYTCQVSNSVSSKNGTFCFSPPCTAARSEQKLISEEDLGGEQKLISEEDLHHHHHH
Protocol: as §1, §2

[4] = molecular target: T4, Dimeric monkey CD48-mFc (monkey); assay: as above
T4 construct: Soluble monkey CD48 with a C-terminal Fc fusion [mFc]; the whole entry is the construct
T4 chain: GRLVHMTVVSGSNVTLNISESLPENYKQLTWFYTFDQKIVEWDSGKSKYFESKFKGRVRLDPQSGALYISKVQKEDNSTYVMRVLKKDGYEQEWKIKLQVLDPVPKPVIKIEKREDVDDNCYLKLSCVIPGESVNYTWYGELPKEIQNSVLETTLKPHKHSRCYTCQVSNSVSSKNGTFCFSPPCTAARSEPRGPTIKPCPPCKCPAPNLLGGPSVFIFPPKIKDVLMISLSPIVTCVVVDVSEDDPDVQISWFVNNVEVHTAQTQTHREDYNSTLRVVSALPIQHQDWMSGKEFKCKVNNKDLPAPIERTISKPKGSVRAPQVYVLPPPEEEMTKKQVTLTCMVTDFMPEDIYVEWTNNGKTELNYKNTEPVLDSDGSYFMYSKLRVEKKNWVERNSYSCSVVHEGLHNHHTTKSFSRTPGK
Protocol: as §1, §2

[5] = molecular target: T3, Monomeric monkey CD48-mmH; assay: SPR (Biacore), antibody captured by anti-Fc, CD48 in solution, 25 C
Protocol: as §1, §2

[6] = molecular target: T4, Dimeric monkey CD48-mFc; assay: as above
Protocol: as §1, §2

Binder	Kd [1] [nM]	T½ [1] [min]	koff [1] [s⁻¹]	kon [1] [M⁻¹ s⁻¹]	Kd [2] [nM]	T½ [2] [min]	koff [2] [s⁻¹]	kon [2] [M⁻¹ s⁻¹]	Kd [3] [nM]	T½ [3] [min]	koff [3] [s⁻¹]	kon [3] [M⁻¹ s⁻¹]	Kd [4] [nM]	T½ [4] [min]	koff [4] [s⁻¹]	kon [4] [M⁻¹ s⁻¹]	Kd [5] [nM]	T½ [5] [min]	koff [5] [s⁻¹]	kon [5] [M⁻¹ s⁻¹]	also measured
H4H1707N (antibody, V domains shown, Human IgG4 Fc (H4H)) VH: EGQLLESGGGLAQPGGSLRLSCAASGITFGRYAMSWVRQAPGKGLEWVSLISGSGGSTYHADSVKGRFTISRDNSKNTLYLQMNSLRAEDTAVYYCAIYNNYNWFDPWGQGTLVTVSS VL: EIVLTQSPGTLSLSPGERATLSCRASQSVSSNYLAWYQQKPGQAPRLLIYDASSRATDIPDRFSGSGSGTDFTLTISRLEPEDFAVYYCQQYGSSPRTFGQGTKVEIK	9.63	4	0.00273	284000	0.0654	180	6.42e-05	981000	3.72	9	0.00122	327000	3.2	2	0.00524	1.64e+06	1.25	32	0.000362	289000	Kd [6]: 1.48 nM; T½ [6]: 10 min; koff [6]: 0.00119 s⁻¹; kon [6]: 805000 M⁻¹ s⁻¹
H4H1713N (antibody, V domains shown, Human IgG4 Fc (H4H)) VH: QVQLVQSGAEVKKPGASVKVSCKASGHTFTNYYIHWVRQAPGQGLEWMGITNPNDGNTRYAQKFQGRISMTWDTSTSTVFMELSSLKSEDTAVYYCAGLRYWFFDLWGRGTPVTVSS VL: DIQMTQSPSSVSASVGDRVTITCRASQDISSWLAWYQQKPGKAPNLLIFAASSLQSGVPSRFSGSGSGTDFTLTISSLQPEDFGTYYCQQTDNFPRTFGQGTKVEIN	2.23	18	0.000636	286000	0.036	255	4.53e-05	1.26e+06	1.19	30	0.000382	320000	0.3	22	0.000516	1.72e+06	0.843	44	0.000265	315000	Kd [6]: 0.281 nM; T½ [6]: 48 min; koff [6]: 0.000242 s⁻¹; kon [6]: 861000 M⁻¹ s⁻¹
H4H1763N (antibody, V domains shown, Human IgG4 Fc (H4H)) VH: QIQLVQSGAEMKRPGTSVKVSCKASGYTFTSYGINWVRQAPGQGLEWMGWISAYNGDTNYAQKLQGRVTMTTDTSTTTAYMEVRSLRSDDTAVYYCARFLTGTKDYYYGMDVWGQGTTVTVSS VL: DIQMTQSPSSLSASVGDRVTITCQASQDISNFLNWYQQKPGKAPDLLINDASILETGVPSRFSGSGSGTDFTLTINNLQPEDIATYYCQQYDNLPLTFGGGTKVEIK	12.7	1	0.0169	1.33e+06	0.0267	184	6.28e-05	2.35e+06	2.49	9	0.00133	534000	0.047	101	0.000114	2.42e+06	2.34	9	0.00124	527000	Kd [6]: 0.0519 nM; T½ [6]: 168 min; koff [6]: 6.88e-05 s⁻¹; kon [6]: 1.33e+06 M⁻¹ s⁻¹
H4H1764N (antibody, V domains shown, Human IgG4 Fc (H4H)) VH: QVQLVESGGGVVQPGRSLRLSCAASGFTFSDYGMHWVRQAPGKGLEWVAVIWNDGSNKNYADSVKGRFSISSDSSKNTLYLHMNSLRAEDTAVYYCARSLYSTSPWYFDLWGRGTLVTVSS VL: not shown	109	1	0.0114	105000	0.33	116	9.94e-05	301000	2.91	19	0.00062	213000	7.4	8	0.00142	192000	2.34	56	0.000206	87700	Kd [6]: 0.525 nM; T½ [6]: 88 min; koff [6]: 0.000132 s⁻¹; kon [6]: 251000 M⁻¹ s⁻¹
H4H1770P (antibody, human IgG4, V domains shown, Human IgG4 Fc (H4H)) VH: QVQLVQSGAEVKKPGAAVKVSCKASGYTFTAYGISWVRQAPGQGLEWMGWISAYDGDTNNAQKFQGRVTMTTDTSSSTAYMELRSLGSDDTAVYYCARDRYSSSSGYFDYWGQGTLVTVSS VL: DIQMTQSPSSVSASVGDRVTITCRASQDISSWLAWSQQKPGKAPKALIYAASSLQSGVPSRFSGSGSGTDFTLTISSLQPEDFATYYCQQANSFPYTFGQGTKLEIK	0.662	22	0.000533	804000	0.0138	375	3.08e-05	2.23e+06	0.44	66	0.000174	396000	0.0911	83	0.000139	1.53e+06	0.298	54	0.000215	720000	Kd [6]: 0.131 nM; T½ [6]: 103 min; koff [6]: 0.000113 s⁻¹; kon [6]: 858000 M⁻¹ s⁻¹
H4H1771P (antibody, human IgG4, V domains shown, Human IgG4 Fc (H4H)) VH: QVQLVQSGTEVKKPGASVKVSCKVSGYTLIDLSIHWVRQAPGEGLEWMGGFDPEESETIYAQKFQGRVTMTEDTSTDTAYMELSSLRSEDTAVYYCVTEPIFGILIHESWGQGTLVTVSS VL: DIVMTQTPLSSPVTLGQPASISCRSSHSPVHSNGHTYLSWLQQRPGQPPRILIYKISRRFSGVPDRFSGSGAGTDFTLKISRVETEDVGIYYCMQASQFPWTFGQGTKVEIK	0.488	21	0.000547	1.12e+06	0.0166	240	4.81e-05	2.89e+06	1.34	13	0.000877	657000	0.0621	113	0.000102	1.64e+06	0.453	24	0.000477	1.05e+06	Kd [6]: 0.0587 nM; T½ [6]: 210 min; koff [6]: 5.51e-05 s⁻¹; kon [6]: 939000 M⁻¹ s⁻¹
H4H1772P (antibody, human IgG4, V domains shown, Human IgG4 Fc (H4H)) VH: EVQLVESGGGLVQPGGSLRLSCAASGFTFSSYWMSWVRQAPGKGLEWVANIMRDGSEKYYVDSVKGRFTISRDNAKNSLYLQMNSLRGEDTAVYYCARERGFYTNYGNWFDPWGQGTLVTVSS VL: DIVMTQSPLSLTVTPGESASISCRSSQSLLHSYGYNSLDWYLQKPGQSPQFLIYLVSNRASGVPDRFSGSGSGTDFTLKISRVEAEDVGVYYCMQVLQTPYTFGQGTKLEIK	5.94	11	0.00102	172000	0.065	193	5.98e-05	920000	4.53	8	0.00145	320000	0.0947	158	7.31e-05	772000	1.1	23	0.000508	461000	Kd [6]: 0.0968 nM; T½ [6]: 230 min; koff [6]: 5.02e-05 s⁻¹; kon [6]: 519000 M⁻¹ s⁻¹
